Test results as given in patent publication US20190077875A1 (MorphoSys, published 2019).

Molecular target: T1, MOR202 (anti-CD38 antibody)
T1 construct: also called MOR03087
Assay: serum immunofixation electrophoresis (IFE) after pre-incubation of MOR202 (1200 µg/mL, saline or serum) with MOR09292-hAlb; anti-IgG or anti-lambda staining
Description: MOR202 at a constant concentration of 1200 μg/mL in saline (Lane 2-3) or serum (Lane 4-13) was pre-incubated with or without its idiotypic antibody MOR09292-hAlb at different ratios and the prepared samples were analyzed via IFE using anti-IgG staining (Lane 2-8) or anti-lambda staining (Lane 9-13). (Lane 2=MOR202; Lane 3=MOR202+MOR09292-hAlb at 2400 μg/mL; Lane 4=MOR202; Lane 5=MOR202+MOR09292-hAlb at 1200 μg/mL; Lane 6=MOR202+MOR09292-hAlb at 1800 μg/mL; Lane 7=MOR202+MOR09292-hAlb at 2400 μg/mL; Lane 8=MOR202+MOR09292-hAlb at 3600 μg/mL; Lane 9=MOR202; Lane 10=MOR202+MOR09292-hAlb at 1200 μg/mL; Lane 11=MOR202+MOR09292-hAlb at 1800 μg/mL; Lane 12=MOR202+MOR09292-hAlb at 2400 μg/mL; Lane 13=MOR202+MOR09292-hAlb at 3600 μg/mL; Lane 1=human serum from a healthy donor stained for total protein to evaluate general background signaling).
In order to differentiate between MOR202 related assay signals in IFE vs. endogenous M-protein spikes a method was tested pre-incubating a MOR202 containing sample with an MOR202 specific anti-idiotypic antibody (MOR09292). […] For evaluating if the migration distance is large enough to be detected samples containing MOR202 in saline were prepared and pre-incubated with or without MOR09292. […] Afterwards, the samples were analyzed and IFE gels were stained with anti-IgG or anti-lambda antisera. […]

T1 sequence (VH, as listed by the source, chain 1 of 2): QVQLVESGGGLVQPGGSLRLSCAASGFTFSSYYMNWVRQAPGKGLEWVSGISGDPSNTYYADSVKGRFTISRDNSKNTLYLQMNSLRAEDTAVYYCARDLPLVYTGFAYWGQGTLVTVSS
T1 sequence (VL, as listed by the source, chain 2 of 2): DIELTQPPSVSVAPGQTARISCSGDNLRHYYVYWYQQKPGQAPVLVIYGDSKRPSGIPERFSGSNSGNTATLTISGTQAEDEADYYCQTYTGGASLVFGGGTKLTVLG

B1: MOR09292-human albumin fusion (MOR09292-Fab fragment genetically fused to human albumin) (Fab)
heavy: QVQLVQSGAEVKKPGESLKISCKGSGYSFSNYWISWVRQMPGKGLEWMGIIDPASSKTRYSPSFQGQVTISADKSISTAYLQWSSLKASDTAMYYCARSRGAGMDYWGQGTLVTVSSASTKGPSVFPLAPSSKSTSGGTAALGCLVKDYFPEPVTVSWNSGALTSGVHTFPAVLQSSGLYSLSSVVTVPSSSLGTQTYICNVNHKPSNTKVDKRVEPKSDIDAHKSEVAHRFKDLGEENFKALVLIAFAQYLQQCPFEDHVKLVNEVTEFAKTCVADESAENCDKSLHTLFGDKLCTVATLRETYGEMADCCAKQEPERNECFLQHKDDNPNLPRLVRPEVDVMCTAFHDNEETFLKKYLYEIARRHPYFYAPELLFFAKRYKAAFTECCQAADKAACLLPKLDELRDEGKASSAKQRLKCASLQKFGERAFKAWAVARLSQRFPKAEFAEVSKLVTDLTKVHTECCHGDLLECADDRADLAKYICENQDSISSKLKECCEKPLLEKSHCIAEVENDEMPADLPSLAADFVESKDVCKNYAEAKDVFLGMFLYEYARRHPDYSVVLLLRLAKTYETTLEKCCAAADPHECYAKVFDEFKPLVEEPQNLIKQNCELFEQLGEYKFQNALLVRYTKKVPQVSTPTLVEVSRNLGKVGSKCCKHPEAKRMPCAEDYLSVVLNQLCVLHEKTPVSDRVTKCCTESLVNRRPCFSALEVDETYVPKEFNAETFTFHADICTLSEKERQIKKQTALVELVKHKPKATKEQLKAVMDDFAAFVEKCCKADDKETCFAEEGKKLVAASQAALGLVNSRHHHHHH
light: DIVLTQPPSVSGAPGQRVTISCTGSSSNIGAGYDVHWYQQLPGTAPKLLIYADNNRPSGVPDRFSGSKSGTSASLAITGLQSEDEADYYCGSYDESSNSMVFGGGTKLTVLGQPKAAPSVTLFPPSSEELQANKATLVCLISDFYPGAVTVAWKADSSPVKAGVETTTPSKQSNNKYAASSYLSLTPEQWKSHRSYSCQVTHEGSTVEKTVAPTECS
notes: Anti-idiotypic Fab to MOR202, fused to human albumin; also called MOR09292-hAlb; MOR09292-huAlb
binding result: binds
